Measured values reported in article PMC7736784 (2020).

Target: Sso7d-NanoLuc large fragment fusion

Binder: NVSGWRLFKKISN [NS5-Stoffel fusion (NanoLuc small fragment NS5)]
- Kd: 3.4 nM

Binder: NVTGYRLFKKISN [NS4]
- Kd: 8.5 nM

Binder: GVTGWRLCERILA [NS6]
- Kd: 900 nM
